Substrate: O=c1ccn([C@H]2C[C@H](O)[C@@H](COP(=O)(O)OP(=O)(O)OP(=O)(O)O)O2)c(=O)[nH]1
Assay: purified protein
Format: biochemical, Arabidopsis thaliana
Settings: pH 7.6, 25 °C, 5 mM MgCl2, 100 mM KCl, 0.25 mM bicine, 50 nM enzyme

B1: Arabidopsis dUTPase (Arabidopsis thaliana) (protein)
chain: MACVNEPSPKLQKLDRNGIHGDSSPSPFFKVKKLSEKAVIPTRGSPLSAGYDLSSAVDSKVPARGKALIPTDLSIAVPEGTYARIAPRSGLAWKHSIDVGAGVIDADYRGPVGVILFNHSDADFEVKFGDRIAQLIIEKIVTPDVVEVDDLDETVRGDGGFGSTGV
notes: full length, 166 residues; His tag removed by thrombin, extra Gly-Ser-His at N-terminus; expressed in E. coli JM103 (DE3); homotrimer
B1 showed a Km of 0.4 ± 0.1 µM.
